Like-named read-outs stand apart in the source and are kept apart here.
B1: L6.P4A3.10 (antibody, V domains shown)
VH: QVQLVQSGAEVKKPGSSVKVSCKAPGGTFSSSAISWVRQAPGQGLEWMGGIIPILDITHYAQKFQGRVTITADKSTSTAFMELSSLRSEDTAVYYCALRNQWDLLVYWGQGTLVTVSS
VL: EIVLTQSPGTLSLSPGERATLSCRASQSVSSSYLAWYQQKPGQAPRLLIYGAESRATGIPDRFSGSGSGTDFTLTISRLEPEDFAVYYCQHYGSSVWTFGQGTKLEIK
B2: L12.cP08D07 (antibody, V domains shown)
VH: QVQLQESGPGLVKPSETLSLTCTVSGGSISSSSYYWGWIRQPPGKGLEWIGSIYYSGSTYYNPSLKSRVTISVDTSKNQFSLKLSSVTAADTAVYYCARQGDCSTTSCAYDYWGQGTLVTVSS
VL: SYELTQPPSVSVSPGQTARITCSGDALPKQYAYWYQQKPGQAPVLVIYKDSERPSGIPERFSGSSSGTTATLTISGVQAEDEADYYCQSADSSGTYLVVFGGGTKLAVL
notes: human IgG1

Tests used:
[1] = molecular target: human insulin (human, UniProt P01308 25-54; P01308 90-110); assay: polyreactivity ELISA
[2] = molecular target: SARS-CoV-2 RBD (RBD-2) (SARS-CoV-2); assay: SPR, Fc-captured IgG
[3] = molecular target: T1, SARS-CoV-2 spike on pseudovirus or live virus (USA-WA1/2020, WT) (SARS-CoV-2, UniProt P0DTC2 14-1273); assay: cell-based or functional assay
[4] = molecular target: T2, SARS-CoV-1 spike on pseudovirus (SARS-CoV-1, UniProt P59594 14-1255); assay: cell-based or functional assay
[5] = molecular target: SARS-CoV-2 RBD (RBD-2) (SARS-CoV-2); assay: ELISA
[6] = molecular target: SARS-CoV-1 RBD (RBD-1) (SARS-CoV-1); assay: ELISA
[7] = molecular target: SARS-CoV-2 RBD (RBD-2) (SARS-CoV-2); assay: flow, HeLa-ACE2, mAb:RBD=4:1
[8] = molecular target: SARS-CoV-2 RBD (RBD-2) (SARS-CoV-2); assay: flow, HeLa-ACE2, mAb:RBD=2:1
[9] = molecular target: T1, SARS-CoV-2 spike on pseudovirus or live …; assay: cell-based or functional assay; remark: listed apart in the source
[10] = molecular target: T2, SARS-CoV-1 spike on pseudovirus; assay: cell-based or functional assay; remark: listed apart in the source
[11] = molecular target: T3, SARS-CoV-2 RBD (residue 332-527) (SARS-CoV-2, UniProt P0DTC2 332-527); assay: ELISA on truncated S constructs
T3 construct: range 332-527

Chain of human insulin (P01308 25-54 limits assumed, chain 1 of 2): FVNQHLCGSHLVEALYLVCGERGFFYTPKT
Chain of human insulin (P01308 90-110 limits assumed, chain 2 of 2): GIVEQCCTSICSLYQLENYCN

Binder | binding result [1] | Kd [2] [nM] | koff [2] [s⁻¹] | kon [2] [M⁻¹ s⁻¹] | Maximum Plateau of Neutralization [3] [%] | PSV neutralization IC50 [3] [µg/mL] | PSV neutralization IC50 [4] [µg/mL] | EC50 [5] [µg/mL] | EC50 [6] [µg/mL] | % inhibition of RBD binding to hACE2 [7] [%] | MFI (RBD binding to cell surface) [7] | % inhibition of RBD binding to hACE2 [8] [%] | MFI (RBD binding to cell surface) [8] | PSV neutralization IC50 [9] [µg/mL] | PSV neutralization IC50 [10] [µg/mL] | binding result [11]
B1 | no binding | – | – | – | – | – | – | – | – | – | – | – | – | – | – | –
B2 | – | 26.8 | 0.017 | 636000 | 64 | 21.9 | > 50 | > 50 | > 50 | -3.9 | 11600 | 3 | 10800 | 1.81 | > 50 | no binding

— patent US20230357364A1 (INTERNATIONAL AIDS VACCINE INITIATIVE, published 2023)
